Measured values reported in patent US20230374144A1 (STAIDSON BEIJING BIOPHARMACEUTICAL, published 2023).
Residue numbers refer to the chain shown, from its start.

B1: C27-7-33 (antibody, human IgG4, V domains shown)
VH: EVQLLESGGGLVQPGGSLRLSCAASGFTLSSYAMHWVRQAPGKGLEYVSGISPSGVSTYYANSVKGRFTISRDNPKNTLFLQMSSLRAEDTAVYYCVRVKVKYRGGMDVWGQGTTVTVSS
VL: EIVLTQSPGTLSLSPGERATLSCRASQGISSAYLAWYQQKPGQAPRLLIYGTSRRATGIPDRFSGSGSGTDFTLTISRLEPEDFAVYYCQLYGATSVTFGQGTKLEIK
B2: C27-47-56 (antibody, human IgG4, V domains shown)
VH: B1 VH with S54T, V56T, V101G, K102A
VL: B1 VL with G28S, I29V, T95S
B3: Dupilumab (antibody, V domains shown)
VH: EVQLVESGGGLEQPGGSLRLSCAGSGFTFRDYAMTWVRQAPGKGLEWVSSISGSGGNTYYADSVKGRFTISRDNSKNTLYLQMNSLRAEDTAVYYCAKDRLSITIRPRYYGLDVWGQGTTVTVSS
VL: DIVMTQSPLSLPVTPGEPASISCRSSQSLLYSIGYNYLDWYLQKSGQSPQLLIYLGSNRASGVPDRFSGSGSGTDFTLKISRVEAEDVGFYYCMQALQTPYTFGQGTKLEIKR
B4: C27-6-33 (antibody, human IgG4, V domains shown)
VH: B1 VH with V56S, V99S, K102R
VL: B1 VL
B5: C27-24-56 (antibody, human IgG4, V domains shown)
VH: B1 VH with S54T, G55S, V56G, K102R
VL: B1 VL with G28S, I29V, T95S
B6: C27 (antibody, human IgG4, V domains shown)
VH: B1 VH with P53S, S54N, V56G, K102G
VL: ETTLTQSPDTLPLSPGDRASLSCRASQSVSSAYLAWYQQKPGQAPRLLIYGTSRRATGVPGRFSGSGSGTDFTLTISRLEPEDFAVYYCQLYGSSSVTFGQGTKLEIK
notes: also called parent antibody C27; lead parent antibody
B7: C27-36-36 (antibody, human IgG4, V domains shown)
VH: B1 VH
VL: B1 VL with G28N, S31T
B8: C27-55-55 (antibody, human IgG4, V domains shown)
VH: B1 VH with S54T, V56G, V101G, K102R
VL: B1 VL with G28N, S31T, A94T, T95S
B9: C27-33-33 (antibody, human IgG4, V domains shown)
VH: B1 VH with P53S, V56S, K102A
VL: B1 VL
B10: C27-78-78 (antibody, human IgG4, V domains shown)
VH: B1 VH with G55S, V56A, V101S
VL: B1 VL with G28S, S31T, T95S
B11: C27-56-56 (antibody, human IgG4, V domains shown)
VH: B1 VH with G55S, V56T, K102L
VL: B1 VL with G28S, I29V, T95S
B12: C27-82-58 (antibody, human IgG4, V domains shown)
VH: B1 VH with P53G, S54N, G55S, V56A, V101L
VL: B1 VL with G28D
B13: C27-Y2-Y2 (antibody, human IgG4, V domains shown)
VH: B1 VH with P53Y, G55S, V56A, K102R
VL: B1 VL with T5P, I29V, A94S
B14: C27-52-52 (antibody, human IgG4, V domains shown)
VH: B1 VH with P53S, V56S, V101P, K102A
VL: B1 VL with I29V, S31T
B15: C27-58-58 (antibody, human IgG4, V domains shown)
VH: B1 VH with G55S, V56N, K102R
VL: B1 VL with G28D
B16: C27-53-53 (antibody, human IgG4, V domains shown)
VH: B1 VH with P53S, S54N, V56G, K100F, K102R
VL: B1 VL with G28D, I29A, S31N, A94S, T95S
B17: C27-54-54 (antibody, human IgG4, V domains shown)
VH: B1 VH with P53H, V56T, K100R, K102L
VL: B1 VL with G28D, I29V
B18: C27-67-67 (antibody, human IgG4, V domains shown)
VH: B1 VH with S54T, G55S, V56A, V101G, K102R
VL: B1 VL with I29V, A94R, T95S

target: T1, human IL-4Rα on cells (human, UniProt P24394 26-825); assay: cell-based or functional assay

IC50(nM), inhibition of TARC release in human PBMCs induced by hIL-4 (32 ng/mL) | Binder
0.916 nM | B1
1.2 nM | B2
0.63 nM | B3

target: T1, human IL-4Rα on cells; assay: cell-based or functional assay; remark: another data set of the same source

IC50(nM), inhibition of TARC release in human PBMCs induced by hIL-13 (200 ng/mL) | Binder
0.0576 nM | B1
0.0913 nM | B2
0.0323 nM | B3

target: T1, human IL-4Rα on cells; assay: cell-based or functional assay; remark: another data set of the same source

IC50(nM), neutralization of hIL-13 (4 ng/ml), HEK-Blue IL-4/IL-13 STAT6-SEAP reporter cells | Binder
0.0343 nM | B1
0.0446 nM | B4
0.0966 nM | B2
0.0482 nM | B5
0.136 nM | B3

target: T2, recombinant human IL-4Rα (extracellular domain, tagged) (human, UniProt P24394 26-232); assay: SPR, Biacore T200; antibody (human IgG4) on the sensor chip, human IL-4Rα at 0.625-12.5 nM
T2 construct: it is written second here only for want of that; also called hIL-4Rα; not shown: His-tag or other conventionally used tag
Method: The binding affinity of the anti-IL-4Rα antibodies (reformatted as human IgG4) to human IL-4Rα was characterized using Biacore T200 (GE). The full-length anti-IL-4Rα antibodies were stabilized on sensor chip CMS. The affinities for human IL-4Rα at various concentrations were measured. […] Using the SPR technology, the association and dissociation rates were measured, and binding affinity was determined.

Kd | koff | kon | Binder
17.6 nM | 0.0127 s⁻¹ | 719000 M⁻¹ s⁻¹ | B6
1.01 nM | 0.000134 s⁻¹ | 134000 M⁻¹ s⁻¹ | B1
2.56 nM | 0.000351 s⁻¹ | 137000 M⁻¹ s⁻¹ | B7
2.47 nM | 0.000379 s⁻¹ | 154000 M⁻¹ s⁻¹ | B8
3.74 nM | 0.000447 s⁻¹ | 119000 M⁻¹ s⁻¹ | B9
3.62 nM | 0.000416 s⁻¹ | 115000 M⁻¹ s⁻¹ | B10
2.38 nM | 0.000201 s⁻¹ | 84500 M⁻¹ s⁻¹ | B11
3.67 nM | 0.000557 s⁻¹ | 152000 M⁻¹ s⁻¹ | B12
2.12 nM | 0.00017 s⁻¹ | 80400 M⁻¹ s⁻¹ | B4
1.82 nM | 0.000195 s⁻¹ | 107000 M⁻¹ s⁻¹ | B2
5.6 nM | 0.00078 s⁻¹ | 139000 M⁻¹ s⁻¹ | B13
1.86 nM | 0.000173 s⁻¹ | 92700 M⁻¹ s⁻¹ | B5

target: T1, human IL-4Rα on cells; assay: cell-based or functional assay; remark: another data set of the same source

IC50(nM), inhibition of hIL-4 (1 ng/mL) dependent CD23 upregulation on B cells in human PBMCs | Binder
0.0303 nM | B1
0.0814 nM | B2
0.119 nM | B3

target: T1, human IL-4Rα on cells; assay: cell-based or functional assay; remark: another data set of the same source

IC50(nM), inhibition of hIL-13 (20 ng/mL) dependent CD23 upregulation on B cells in human PBMCs | Binder
0.179 nM | B1
0.698 nM | B2
2.8 nM | B3

target: T1, human IL-4Rα on cells; assay: cell-based or functional assay; remark: another data set of the same source

IC50(nM), inhibition of IL-4 (2 ng/mL) dependent TF-1 cell proliferation | Binder
0.0311 nM | B1
0.0509 nM | B2
0.253 nM | B3

target: T3, IL-4R with mouse Fc-tag (human, UniProt P24394 26-232); assay: competitive ELISA: antibody dilutions with 0.5 µg/mL IL-4R-mouse Fc on plate-captured biotinylated IL-4, anti-mouse-Fc-HRP
T3 construct: not shown: mouse Fc-tag
Method: Competitive ELISA: The second assay was designed to identify the anti-IL-4Rα antibodies that were capable of inhibiting the binding of hIL-4 to hIL-4Rα, as measured by competitive ELISA. Briefly, a 96-well plate was coated with 100 μL, 2.5 μg/mL SA (Streptavidin) solution, and incubated overnight at 4° C., followed by washed with TBST. Biotinylated IL-4 with the final concentration of 2 μg/mL was added into the plate and incubated at 37° C. for 1 hour. Then the plate was washed with TBST. The anti-IL-4Rα antibody samples were first diluted to 10 μg/mL, and 1004, of the sample was added to the first row of wells. 10 μg/mL anti-IL-4Rα antibody samples were then serially diluted at a 1:2 ratio and added to each of the remaining rows of wells. 504 of 0.5 μg/mL IL-4R with mouse Fc-tag was added to each well. After incubating for 1 hour at 37° C., the wells were washed with TBST 6 times. 100 µL of anti-mouse-Fc-HRP (1:10,000) was then added to each well and incubated for 1 hour at 37° C. The wells were washed with TBST 6 times before adding 1004/well of TMB, and incubated for 5-10 minutes at 37° C. 2M H₂SO₄ was used to stop the reaction. The ELISA results (OD450) were read, and the binding curves were generated by GraphPad Prism 5 software (GraphPad Software). Reference antibody Dupilumab (Regeneron, anti-IL-4Rα antibody) and AMG317 (Amgen, anti-IL-4Rα antibody) were used as positive controls, Human IgG4, kappa Isotype Control (Cat #HG4K, Sino Biological Inc.) was used as negative control, abbreviated as Human IgG4 in FIG. 1.

IC50 | Binder
0.0582 µg/mL | B1
0.0781 µg/mL | B4
0.0651 µg/mL | B2
0.0632 µg/mL | B5
0.0838 µg/mL | B3

target: T1, human IL-4Rα on cells; assay: cell-based or functional assay; remark: another data set of the same source

IC50(nM), neutralization of hIL-4 (1.2 ng/ml), HEK-Blue IL-4/IL-13 STAT6-SEAP reporter cells | Binder
17.9 nM | B6
0.0541 nM | B1
0.476 nM | B14
0.41 nM | B15
0.293 nM | B16
0.34 nM | B17
0.076 nM | B18
0.125 nM | B7
0.0853 nM | B8
0.195 nM | B9
0.103 nM | B10
0.15 nM | B11
0.283 nM | B12
0.0537 nM | B4
0.103 nM | B2
0.138 nM | B13
0.0632 nM | B5
0.165 nM | B3

target: T1, human IL-4Rα on cells; assay: cell-based or functional assay; remark: another data set of the same source

IC50(nM), inhibition of IL-13 (10 ng/mL) dependent TF-1 cell proliferation | Binder
0.0902 nM | B1
0.0849 nM | B2
0.301 nM | B3
